Laboratory results reported in patent publication US20090148437A1.

Legend:
[1] = biological target: human TNFR1 (soluble recombinant protein) (human) (UniProt P19438); experiment: phage ELISA, 1 nM TNFRI coat; 1 mg/ml trypsin; phage input 2.26E+10
[2] = biological target: human TNFR1 (soluble recombinant protein) (human) (UniProt P19438); experiment: phage ELISA, plate coated with 1 nM TNFRI, anti-M13-HRP; no trypsin (0 µg/ml); phage input 4.51E+10
[3] = biological target: human TNFR1 (soluble recombinant protein) (human) (UniProt P19438); experiment: phage ELISA, 1 nM TNFRI coat; 10 µg/ml trypsin; phage input 7.05E+08
[4] = biological target: human TNFR1 (soluble recombinant protein) (human) (UniProt P19438); experiment: phage ELISA, 1 nM TNFRI coat; no trypsin; phage input 5.64E+09
[5] = biological target: human TNFR1 (soluble recombinant protein) (human) (UniProt P19438); experiment: phage ELISA, plate coated with 1 nM TNFRI, anti-M13-HRP; phage pre-treated 1 h RT with 100 µg/ml trypsin; phage input 4.51E+10
[6] = biological target: human TNFR1 (soluble recombinant protein) (human) (UniProt P19438); experiment: phage ELISA, 1 nM TNFRI coat; no trypsin; phage input 7.05E+08
[7] = biological target: human TNFR1 (soluble recombinant protein) (human) (UniProt P19438); experiment: phage ELISA, 1 nM TNFRI coat; 1 mg/ml trypsin; phage input 2.82E+09
[8] = biological target: human TNFR1 (soluble recombinant protein) (human) (UniProt P19438); experiment: phage ELISA, 1 nM TNFRI coat; 1 mg/ml trypsin; phage input 1.41E+09
[9] = biological target: human TNFR1 (soluble recombinant protein) (human) (UniProt P19438); experiment: phage ELISA, 1 nM TNFRI coat; no trypsin; phage input 1.41E+09
[10] = biological target: human TNFR1 (soluble recombinant protein) (human) (UniProt P19438); experiment: phage ELISA, 1 nM TNFRI coat; 100 µg/ml trypsin; phage input 2.26E+10
[11] = biological target: human TNFR1 (soluble recombinant protein) (human) (UniProt P19438); experiment: phage ELISA, 1 nM TNFRI coat; no trypsin; phage input 2.26E+10
[12] = biological target: human TNFR1 (soluble recombinant protein) (human) (UniProt P19438); experiment: phage ELISA, 1 nM TNFRI coat; 100 µg/ml trypsin; phage input 5.64E+09
[13] = biological target: human TNFR1 (soluble recombinant protein) (human) (UniProt P19438); experiment: phage ELISA, 1 nM TNFRI coat; 100 µg/ml trypsin; phage input 1.13E+10
[14] = biological target: human TNFR1 (soluble recombinant protein) (human) (UniProt P19438); experiment: phage ELISA, 1 nM TNFRI coat; 100 µg/ml trypsin; phage input 2.82E+09
[15] = biological target: human TNFR1 (soluble recombinant protein) (human) (UniProt P19438); experiment: phage ELISA, 1 nM TNFRI coat; 1 mg/ml trypsin; phage input 3.52E+08
[16] = biological target: human TNFR1 (soluble recombinant protein) (human) (UniProt P19438); experiment: phage ELISA, 1 nM TNFRI coat; 1 mg/ml trypsin; phage input 1.13E+10
[17] = biological target: human TNFR1 (soluble recombinant protein) (human) (UniProt P19438); experiment: phage ELISA, plate coated with 1 nM TNFRI, anti-M13-HRP; phage pre-treated 1 h RT with 10 µg/ml trypsin; phage input 4.51E+10
[18] = biological target: human TNFR1 (soluble recombinant protein) (human) (UniProt P19438); experiment: phage ELISA, 1 nM TNFRI coat; no trypsin; phage input 3.52E+08
[19] = biological target: human TNFR1 (soluble recombinant protein) (human) (UniProt P19438); experiment: phage ELISA, 1 nM TNFRI coat; no trypsin; phage input 2.82E+09
[20] = biological target: human TNFR1 (soluble recombinant protein) (human) (UniProt P19438); experiment: phage ELISA, 1 nM TNFRI coat; 1 mg/ml trypsin; phage input 7.05E+08
[21] = biological target: human TNFR1 (soluble recombinant protein) (human) (UniProt P19438); experiment: phage ELISA, 1 nM TNFRI coat; no trypsin; phage input 1.13E+10
[22] = biological target: human TNFR1 (soluble recombinant protein) (human) (UniProt P19438); experiment: phage ELISA, 1 nM TNFRI coat; 100 µg/ml trypsin; phage input 1.41E+09
[23] = biological target: human TNFR1 (soluble recombinant protein) (human) (UniProt P19438); experiment: phage ELISA, 1 nM TNFRI coat; 10 µg/ml trypsin; phage input 1.41E+09
[24] = biological target: human TNFR1 (soluble recombinant protein) (human) (UniProt P19438); experiment: phage ELISA, 1 nM TNFRI coat; 10 µg/ml trypsin; phage input 5.64E+09
[25] = biological target: human TNFR1 (soluble recombinant protein) (human) (UniProt P19438); experiment: phage ELISA, 1 nM TNFRI coat; 100 µg/ml trypsin; phage input 3.52E+08
[26] = biological target: human TNFR1 (soluble recombinant protein) (human) (UniProt P19438); experiment: phage ELISA, 1 nM TNFRI coat; 10 µg/ml trypsin; phage input 2.26E+10
[27] = biological target: human TNFR1 (soluble recombinant protein) (human) (UniProt P19438); experiment: phage ELISA, 1 nM TNFRI coat; 10 µg/ml trypsin; phage input 2.82E+09
[28] = biological target: human TNFR1 (soluble recombinant protein) (human) (UniProt P19438); experiment: phage ELISA, 1 nM TNFRI coat; 100 µg/ml trypsin; phage input 7.05E+08
[29] = biological target: human TNFR1 (soluble recombinant protein) (human) (UniProt P19438); experiment: phage ELISA, 1 nM TNFRI coat; 10 µg/ml trypsin; phage input 3.52E+08
[30] = biological target: human TNFR1 (soluble recombinant protein) (human) (UniProt P19438); experiment: phage ELISA, 1 nM TNFRI coat; 10 µg/ml trypsin; phage input 1.13E+10
[31] = biological target: human TNFR1 (soluble recombinant protein) (human) (UniProt P19438); experiment: phage ELISA, plate coated with 1 nM TNFRI, anti-M13-HRP; phage pre-treated 1 h RT with 1 mg/ml trypsin; phage input 4.51E+10

Sequence of human TNFR1 (soluble recombinant protein) (human) (P19438 30-211 limits assumed): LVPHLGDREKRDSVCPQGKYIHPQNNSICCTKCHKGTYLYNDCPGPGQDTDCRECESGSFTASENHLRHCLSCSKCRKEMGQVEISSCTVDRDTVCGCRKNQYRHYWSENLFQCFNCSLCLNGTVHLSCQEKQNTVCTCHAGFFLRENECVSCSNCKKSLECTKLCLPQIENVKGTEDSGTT

phage ELISA read-out [1]: 0.229 | phage ELISA read-out [2]: 0.916 | phage ELISA read-out [3]: 0.286 | phage ELISA read-out [4]: 0.962 | phage ELISA read-out [5]: 0.418 | phage ELISA read-out [6]: 0.705 | phage ELISA read-out [7]: 0.114 | phage ELISA read-out [8]: 0.089 | phage ELISA read-out [9]: 0.85 | phage ELISA read-out [10]: 0.377 | phage ELISA read-out [11]: 0.944 | phage ELISA read-out [12]: 0.196 | phage ELISA read-out [13]: 0.284 | phage ELISA read-out [14]: 0.141 | phage ELISA read-out [15]: 0.08 | phage ELISA read-out [16]: 0.183 | phage ELISA read-out [17]: 0.784 | phage ELISA read-out [18]: 0.577 | phage ELISA read-out [19]: 0.946 | phage ELISA read-out [20]: 0.084 | phage ELISA read-out [21]: 0.949 | phage ELISA read-out [22]: 0.115 | phage ELISA read-out [23]: 0.409 | phage ELISA read-out [24]: 0.695 | phage ELISA read-out [25]: 0.084 | phage ELISA read-out [26]: 0.802 | phage ELISA read-out [27]: 0.573 | phage ELISA read-out [28]: 0.084 | phage ELISA read-out [29]: 0.213 | phage ELISA read-out [30]: 0.86 | phage ELISA read-out [31]: 0.284
Substance: DOM1h-131
